In patent US20190201435, “MODULATORS OF VAULT RNAS FOR USE IN THE TREATMENT OF DISEASES” (European Molecular Biology Laboratory, published 2019) one finds binding result and Kd data, which are given here for one molecule.

One series has as its target MBP tag only (UniProt P0AEX9 P0AEX9:27-396). In words: EMSA; MBP tag control. In general terms: Mobility shift assays separate free from complexed probe on a gel.
The target of series [1] is p62 (SQSTM1, sequestosome 1) wild type (UniProt Q13501 Q13501:1-440). In words: EMSA; apparent Kd, TBE pH 8.3 gel; competed by cold vtRNA1-1. Conditions: tags: MBP; (radioactive in EMSA); terminal stem loop, single-stranded loops in central domain.

B1: vtRNA1-1 (ssRNA)
RNA: GGCUGGCUUUAGCUCAGCGGUUACUUCGACAGUUCUUUAAUUGAAACAAGCAACCUGUCUGGGUUGUUCGAGACCCGCGGGCGCUCUCCAGUCCUUUU
Consider B1, for which the binding result with MBP tag only was “no binding”. Besides, the Kd in series [1] is about 60 nM.
